Article PMC7935978

Tested on: FUS-Gal4
Assay: single-molecule (DNA curtains, koff/kon)
Conditions: condensate-DNA interaction; protein label and DNA substrate inferred; 40 mM Tris-HCl pH 7.5, 150 mM KCl, 2 mM MgCl2, 1 mM DTT, 0.2 mg/ml BSA; EMSA 30 min at room temperature

Substance: Lambda DNA + 7x Gal4 sites
- Kd: 0.8 nM
